# Measurements published in paper PMC5700927, “Heme enables proper positioning of Drosha and DGCR8 on primary microRNAs” (Nature Communications, 2017).
# T1: Drosha (residues 353-1372) (human, UniProt Q9NRR4 353-1372)
# T1 construct: Drosha (RNase III), human, residues 353-1372 (CED, two RIIID domains, dsRBD); also called the Drosha chain of MP^Heme, MP^Apo, MP^C352S, MP^ΔHBR and MP^CTT
# T1 sequence (looked up): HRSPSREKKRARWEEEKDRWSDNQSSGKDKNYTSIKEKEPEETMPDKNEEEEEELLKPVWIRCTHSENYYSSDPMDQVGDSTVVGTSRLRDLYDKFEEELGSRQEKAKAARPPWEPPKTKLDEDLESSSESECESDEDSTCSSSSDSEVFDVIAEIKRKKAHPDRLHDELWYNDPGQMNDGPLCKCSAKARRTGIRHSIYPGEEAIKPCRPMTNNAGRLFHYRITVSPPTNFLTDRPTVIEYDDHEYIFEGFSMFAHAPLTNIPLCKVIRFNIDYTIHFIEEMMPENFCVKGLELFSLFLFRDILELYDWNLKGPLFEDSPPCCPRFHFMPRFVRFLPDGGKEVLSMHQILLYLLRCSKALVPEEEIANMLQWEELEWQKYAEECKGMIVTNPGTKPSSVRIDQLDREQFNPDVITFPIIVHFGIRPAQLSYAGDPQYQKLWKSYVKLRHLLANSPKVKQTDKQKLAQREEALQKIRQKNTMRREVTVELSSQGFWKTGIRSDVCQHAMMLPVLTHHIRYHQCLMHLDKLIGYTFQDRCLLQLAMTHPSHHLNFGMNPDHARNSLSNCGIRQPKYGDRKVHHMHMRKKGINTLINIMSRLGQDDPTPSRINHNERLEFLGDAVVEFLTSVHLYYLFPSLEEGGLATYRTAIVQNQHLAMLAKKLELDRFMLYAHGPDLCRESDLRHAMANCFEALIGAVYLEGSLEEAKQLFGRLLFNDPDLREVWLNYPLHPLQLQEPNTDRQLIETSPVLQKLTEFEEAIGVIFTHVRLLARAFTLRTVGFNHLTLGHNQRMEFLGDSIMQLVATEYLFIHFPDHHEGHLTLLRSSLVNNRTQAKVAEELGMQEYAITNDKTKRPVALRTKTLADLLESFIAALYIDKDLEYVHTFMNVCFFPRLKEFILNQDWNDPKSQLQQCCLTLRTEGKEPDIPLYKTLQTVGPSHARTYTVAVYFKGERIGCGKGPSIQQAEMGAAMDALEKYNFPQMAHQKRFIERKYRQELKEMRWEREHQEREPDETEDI
# How the values were obtained:
# [1] = biological target: the molecule itself; test: AUC; sedimentation velocity of isolated DGCR8; 0.1-1 mg/mL; 20 mM Tris pH 8.0, 500 mM NaCl, 1 mM TCEP; 142,000 x g, about 16 h; wild-type sample heme-saturated
# [2] = biological target: the molecule itself; test: SEC-MALS; isolated DGCR8; Superdex 200 Increase 10/300; 20 mM Tris pH 8.0, 750 mM NaCl, 1 mM TCEP, 10% glycerol; wild-type sample heme-deficient (Apo); heme-saturated samples inconclusive and not reported
# [3] = biological target: the molecule itself; test: AUC; sedimentation velocity of purified co-expressed Drosha/DGCR8 complex; 0.1-1 mg/mL; 20 mM Tris pH 8.0, 500 mM NaCl, 1 mM TCEP; 72,400 x g, about 16 h
# [4] = biological target: the molecule itself; test: SEC-MALS; purified co-expressed Drosha/DGCR8 complex; Superdex 200 Increase 10/300; 20 mM Tris pH 8.0, 750 mM NaCl, 1 mM TCEP, 10% glycerol
# [5] = biological target: T1, Drosha (residues 353-1372); test: as above; details: both partners purified
Binder,stoichiometry N [1],stoichiometry N [2],stoichiometry N [3],further results
"DGCR8 (residues 223-751), isolated, wild type (domain or fragment, human, UniProt Q8WYQ5 223-751, looked up, DGCR8, human, residues 223-751 (HBR, two dsRBDs, C-terminal tail); also called DGCR8^Heme; DGCR8^Apo; source: E. coli BL21 (DE3) Rosetta, pET21, purified (Ni-NTA, cation exchange, size exclusion); 5 uM hemin Cl in the media for heme-saturated protein) AIVQRDRVDEEALNFPYEDDFDNDVDALLEEGLCAPKKRRTEEKYGGDSDHPSDGETSVQPMMTKIKTVLKSRGRPPTEPLPDGWIMTFHNSGVPVYLHRESRVVTWSRPYFLGTGSIRKHDPPLSSIPCLHYKKMKDNEEREQSSDLTPSGDVSPVKPLSRSAELEFPLDEPDSMGADPGPPDEKDPLGAEAAPGALGQVKAKVEVCKDESVDLEEFRSYLEKRFDFEQVTVKKFRTWAERRQFNREMKRKQAESERPILPANQKLITLSVQDAPTKKEFVINPNGKSEVCILHEYMQRVLKVRPVYNFFECENPSEPFGASVTIDGVTYGSGTASSKKLAKNKAARATLEILIPDFVKQTSEEKPKDSEELEYFNHISIEDSRVYELTSKAGLLSPYQILHECLKRNHGMGDTSIKFEVVPGKNQKSEYVMACGKHTVRGWCKNKRVGKQLASQKILQLLHPHVKNWGSLLRMYGRESSKMVKQETSDKSVIELQQYAKKNKPNLHILSKLQEEMKRLAEEREETRK",2,2,–,–
"DGCR8 (residues 223-751), wild type, co-expressed with Drosha (domain or fragment, human, UniProt Q8WYQ5 223-751, looked up, DGCR8, human, residues 223-751; Two copies per Drosha in the complex (heterotrimer); Heme-saturated in MP^Heme, heme-deficient in MP^Apo; also called DGCR8^Heme; DGCR8^Apo; source: MP^Apo separated from MP^Heme by repeated ion exchange) AIVQRDRVDEEALNFPYEDDFDNDVDALLEEGLCAPKKRRTEEKYGGDSDHPSDGETSVQPMMTKIKTVLKSRGRPPTEPLPDGWIMTFHNSGVPVYLHRESRVVTWSRPYFLGTGSIRKHDPPLSSIPCLHYKKMKDNEEREQSSDLTPSGDVSPVKPLSRSAELEFPLDEPDSMGADPGPPDEKDPLGAEAAPGALGQVKAKVEVCKDESVDLEEFRSYLEKRFDFEQVTVKKFRTWAERRQFNREMKRKQAESERPILPANQKLITLSVQDAPTKKEFVINPNGKSEVCILHEYMQRVLKVRPVYNFFECENPSEPFGASVTIDGVTYGSGTASSKKLAKNKAARATLEILIPDFVKQTSEEKPKDSEELEYFNHISIEDSRVYELTSKAGLLSPYQILHECLKRNHGMGDTSIKFEVVPGKNQKSEYVMACGKHTVRGWCKNKRVGKQLASQKILQLLHPHVKNWGSLLRMYGRESSKMVKQETSDKSVIELQQYAKKNKPNLHILSKLQEEMKRLAEEREETRK",–,–,2,–
"DGCR8 (residues 223-751) C352S, isolated (domain or fragment, human, UniProt Q8WYQ5 223-751, looked up, also called DGCR8^C352S; source: E. coli BL21 (DE3) Rosetta, pET21, purified (Ni-NTA, cation exchange, size exclusion)) AIVQRDRVDEEALNFPYEDDFDNDVDALLEEGLCAPKKRRTEEKYGGDSDHPSDGETSVQPMMTKIKTVLKSRGRPPTEPLPDGWIMTFHNSGVPVYLHRESRVVTWSRPYFLGTGSIRKHDPPLSSIPSLHYKKMKDNEEREQSSDLTPSGDVSPVKPLSRSAELEFPLDEPDSMGADPGPPDEKDPLGAEAAPGALGQVKAKVEVCKDESVDLEEFRSYLEKRFDFEQVTVKKFRTWAERRQFNREMKRKQAESERPILPANQKLITLSVQDAPTKKEFVINPNGKSEVCILHEYMQRVLKVRPVYNFFECENPSEPFGASVTIDGVTYGSGTASSKKLAKNKAARATLEILIPDFVKQTSEEKPKDSEELEYFNHISIEDSRVYELTSKAGLLSPYQILHECLKRNHGMGDTSIKFEVVPGKNQKSEYVMACGKHTVRGWCKNKRVGKQLASQKILQLLHPHVKNWGSLLRMYGRESSKMVKQETSDKSVIELQQYAKKNKPNLHILSKLQEEMKRLAEEREETRK",2,2,–,–
"DGCR8 (residues 223-751) C352S, co-expressed with Drosha (domain or fragment, human, UniProt Q8WYQ5 223-751, looked up, also called DGCR8^C352S; the DGCR8 chain of MP^C352S) AIVQRDRVDEEALNFPYEDDFDNDVDALLEEGLCAPKKRRTEEKYGGDSDHPSDGETSVQPMMTKIKTVLKSRGRPPTEPLPDGWIMTFHNSGVPVYLHRESRVVTWSRPYFLGTGSIRKHDPPLSSIPSLHYKKMKDNEEREQSSDLTPSGDVSPVKPLSRSAELEFPLDEPDSMGADPGPPDEKDPLGAEAAPGALGQVKAKVEVCKDESVDLEEFRSYLEKRFDFEQVTVKKFRTWAERRQFNREMKRKQAESERPILPANQKLITLSVQDAPTKKEFVINPNGKSEVCILHEYMQRVLKVRPVYNFFECENPSEPFGASVTIDGVTYGSGTASSKKLAKNKAARATLEILIPDFVKQTSEEKPKDSEELEYFNHISIEDSRVYELTSKAGLLSPYQILHECLKRNHGMGDTSIKFEVVPGKNQKSEYVMACGKHTVRGWCKNKRVGKQLASQKILQLLHPHVKNWGSLLRMYGRESSKMVKQETSDKSVIELQQYAKKNKPNLHILSKLQEEMKRLAEEREETRK",–,–,2,stoichiometry N [4]: 2
"DGCR8^ΔHBR (residues 489-751), co-expressed with Drosha (domain or fragment, human, UniProt Q8WYQ5 489-751, looked up, DGCR8, human, residues 489-751 (tandem dsRBDs and C-terminal tail, no HBR); One copy per Drosha in MP^ΔHBR; also called DGCR8 lacking the HBR; the DGCR8 chain of MP^ΔHBR) LITLSVQDAPTKKEFVINPNGKSEVCILHEYMQRVLKVRPVYNFFECENPSEPFGASVTIDGVTYGSGTASSKKLAKNKAARATLEILIPDFVKQTSEEKPKDSEELEYFNHISIEDSRVYELTSKAGLLSPYQILHECLKRNHGMGDTSIKFEVVPGKNQKSEYVMACGKHTVRGWCKNKRVGKQLASQKILQLLHPHVKNWGSLLRMYGRESSKMVKQETSDKSVIELQQYAKKNKPNLHILSKLQEEMKRLAEEREETRK",–,–,–,stoichiometry N [5]: 1
